Assay results taken from patent US20230242610A1.

Columns and labels:
mTMEM16A (mouse) = mTMEM16A (mouse) (UniProt Q8BHY3); experiment: cell-based or functional assay
TMEM16A-GFP (mouse) = TMEM16A-GFP (mouse) (UniProt Q8BHY3); experiment: SiMPull, GFP photobleaching step count (stoichiometry)

Sequence of mTMEM16A (mouse) (Q8BHY3 whole entry): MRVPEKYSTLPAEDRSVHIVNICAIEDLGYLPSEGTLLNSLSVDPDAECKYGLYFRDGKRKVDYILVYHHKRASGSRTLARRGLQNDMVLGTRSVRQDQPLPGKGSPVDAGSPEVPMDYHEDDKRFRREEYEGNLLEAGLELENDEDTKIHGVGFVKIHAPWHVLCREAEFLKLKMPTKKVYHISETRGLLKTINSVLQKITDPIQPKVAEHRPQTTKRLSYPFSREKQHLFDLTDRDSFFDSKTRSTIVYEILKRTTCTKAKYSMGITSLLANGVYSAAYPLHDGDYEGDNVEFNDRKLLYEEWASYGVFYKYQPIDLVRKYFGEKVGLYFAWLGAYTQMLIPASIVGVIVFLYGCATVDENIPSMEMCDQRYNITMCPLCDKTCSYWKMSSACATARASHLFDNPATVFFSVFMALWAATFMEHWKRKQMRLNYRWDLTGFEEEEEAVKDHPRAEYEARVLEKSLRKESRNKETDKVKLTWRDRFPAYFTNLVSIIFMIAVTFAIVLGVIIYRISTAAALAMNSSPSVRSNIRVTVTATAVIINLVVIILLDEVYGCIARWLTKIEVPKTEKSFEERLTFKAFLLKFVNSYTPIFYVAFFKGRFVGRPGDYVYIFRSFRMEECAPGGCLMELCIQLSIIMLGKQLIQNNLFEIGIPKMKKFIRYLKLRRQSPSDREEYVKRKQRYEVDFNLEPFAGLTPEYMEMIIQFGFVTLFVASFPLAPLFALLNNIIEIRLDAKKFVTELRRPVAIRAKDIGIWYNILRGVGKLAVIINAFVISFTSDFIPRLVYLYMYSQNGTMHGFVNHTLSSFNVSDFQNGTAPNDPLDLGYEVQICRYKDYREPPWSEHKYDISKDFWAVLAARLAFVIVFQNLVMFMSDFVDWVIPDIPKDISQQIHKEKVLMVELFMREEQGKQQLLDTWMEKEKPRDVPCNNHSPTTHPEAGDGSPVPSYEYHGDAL

**Q.** Which current density at +100 mV, HEK293T co-expressing TMEM16A and KCNE1ΔNt16 (mTMEM16A (mouse)) does the source give for KCNE1ΔNt16 (from UniProt P15382 16-129) here?
**A.** 25.4 pA/pF

**Q.** Which results are given for HA-KCNE1 (from UniProt P15382 1-129)?
**A.** share of pulled-down spots with one-step photobleaching of TMEM16A-GFP (TMEM16A-GFP (mouse)): 20%; share of pulled-down spots with three-step photobleaching of TMEM16A-GFP (TMEM16A-GFP (mouse)): 10%; share of pulled-down spots with two-step photobleaching of TMEM16A-GFP (TMEM16A-GFP (mouse)): 70%

**Q.** With KCNE1ΔNt (from UniProt P15382 43-129) as the substance, how does the current density at +100 mV, HEK293T co-expressing TMEM16A and KCNE1ΔNt (mTMEM16A (mouse)) read?
**A.** 6.56 pA/pF

**Q.** KCNE1 T7I (from UniProt P15382 1-129) was tested. Which current density at +100 mV, HEK293T co-expressing TMEM16A and KCNE1 T7I (mTMEM16A (mouse)) did it give?
**A.** 24.7 pA/pF

**Q.** Which current density at +100 mV, HEK293T co-expressing TMEM16A and KCNE1 S38G (mTMEM16A (mouse)) does the source give for KCNE1S38G (from UniProt P15382 1-129) here?
**A.** 6.96 pA/pF

**Q.** With KCNE1ΔNt30 (from UniProt P15382 30-129) as the substance, how does the current density at +100 mV, HEK293T co-expressing TMEM16A and KCNE1ΔNt30 (mTMEM16A (mouse)) read?
**A.** 25.2 pA/pF

**Q.** hKCNE1 (from UniProt P15382 1-129) was tested. Which current density at +100 mV with 1 mM BAPTA, HEK293T, TMEM16A co-expressed with KCNE1 (against TMEM16A alone) (mTMEM16A (mouse)) did it give?
**A.** 22 pA/pF

**Q.** And the current density at +100 mV, whole-cell patch clamp, HEK293T co-expressing both proteins (mTMEM16A (mouse))?
**A.** 18.1 pA/pF

**Q.** KCNE1ΔCt (from UniProt P15382 1-66) was tested. Which current density at +100 mV, HEK293T co-expressing TMEM16A and KCNE1ΔCt (mTMEM16A (mouse)) did it give?
**A.** 25 pA/pF
